Experimental findings from FireProtDB (doi:10.1002/pro.5560060717) are described below.

The labels stand for the following.
B1: Gamma-crystallin B, P02526 (parent)
chain: MGKITFYEDRGFQGHCYECSSDCPNLQPYFSRCNSIRVDSGCWMLYERPNYQGHQYFLRRGDYPDYQQWMGFNDSIRSCRLIPQHTGTFRMRIYERDDFRGQMSEITDDCPSLQDRFHLTEVHSLNVLEGSWVLYEMPSYRGRQYLLRPGEYRRYLDWGAMNAKVGSLRRVMDFY

Values joined by “and” are separate entries in the source; they are usually repeats but may differ in a detail not shown here. Equal entries are not always repeated.

Variants of B1 are the subject of this data set. Particulars: Bos taurus; pH 2; 20 °C; Urea; Fluorescence; NaCl-HCl 100 mM; reversible: yes; structure 4GCR; whole UniProt chain shown.
Take F57W: the “denaturant midpoint (higher = more stable)” value was 1.5 M and 4.2 M.
